From the supplement of paper PMC10567573

B1: SNAP91 (parent)
chain: FATASAAVPVSTSKPSSDLLDLQP

Variants of: B1
Assay: protein stability index of a GFP-peptide fusion (GPS, HEK-293T) (PSI 1-6); higher = more stable
Conditions: c terminus: a fixed tail appended
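Also: lentivirally expressed fusions sorted by FACS into six bins by GFP to DsRed ratio, PSI derived from sequencing read proportions per bin multiplied by bin number.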

| Variant | protein stability index |
| --- | --- |
| FATASAAVPGSTSKPSSDLLDLQP [V10G] | 3.37 |
| FATASAAVPVSTSKPSQDLLDLQP [S17Q] | 3.72 |
| FATASAAVPVSTSKPSSDLLDLQM [P24M] | 3.52 |
| FASASAAVPVSTSKPSSDLLDLQP [T3S] | 3.39 |
| FATASAAVPVSTSKPSSDLLDLQN [P24N] | 3.43 |
| FATASAAVPVSTGKPSSDLLDLQP [S13G] | 3.95 |
| FAAASAAVPVSTSKPSSDLLDLQP [T3A] | 2.8 |
| FATASAAVPVSLSKPSSDLLDLQP [T12L] | 3.74 |
| FATASAAVPVSTNKPSSDLLDLQP [S13N] | 3.66 |
| FATASAAVPVSTSKPSSDLLPLQP [D21P] | 3.79 |
| FATASAAVPVSTSKPSSDLLFLQP [D21F] | 2.52 |
| FATASKAVPVSTSKPSSDLLDLQP [A6K] | 4.23 |
| FATASAAVPVSWSKPSSDLLDLQP [T12W] | 2.61 |
| FATMSAAVPVSTSKPSSDLLDLQP [A4M] | 3.31 |
| FATASAAVPVSTSKPSFDLLDLQP [S17F] | 2.51 |
| FATASAAVPVSTSKPSSDLVDLQP [L20V] | 4.12 |
| FATASAAVPVSTSKPSSILLDLQP [D18I] | 3.37 |
| FATASQAVPVSTSKPSSDLLDLQP [A6Q] | 3.67 |
| FATASAAVPVSTSKPSSTLLDLQP [D18T] | 3.17 |
| FATASAAVPVSTDKPSSDLLDLQP [S13D] | 3.62 |
| FATASAAVPVSTSKPSSDLLDLFP [Q23F] | 2.7 |
| FADASAAVPVSTSKPSSDLLDLQP [T3D] | 3.8 |
| FATASAAVPVSTSKPISDLLDLQP [S16I] | 3.24 |
| FAVASAAVPVSTSKPSSDLLDLQP [T3V] | 4.38 |

| Variant | protein stability index |
| --- | --- |
| FATASAAVPVPTSKPSSDLLDLQP [S11P] | 2.88 |
| FATASAAVPYSTSKPSSDLLDLQP [V10Y] | 4.29 |
| FATASAAVPVSSSKPSSDLLDLQP [T12S] | 4.49 |
| VATASAAVPVSTSKPSSDLLDLQP [F1V] | 4.54 |
| FATASAAVPVSTPKPSSDLLDLQP [S13P] | 3.83 |
| FATASAAVPVSTSKPSSDKLDLQP [L19K] | 3.79 |
| FATKSAAVPVSTSKPSSDLLDLQP [A4K] | 3.8 |
| FATASAAVPVSTSKPSYDLLDLQP [S17Y] | 3.2 |
| FATASAAVPVSTSKPSSDHLDLQP [L19H] | 4.26 |
| FATASAAVPCSTSKPSSDLLDLQP [V10C] | 3.18 |
| FATNSAAVPVSTSKPSSDLLDLQP [A4N] | 3.81 |
| HATASAAVPVSTSKPSSDLLDLQP [F1H] | 5.52 |
| MATASAAVPVSTSKPSSDLLDLQP [F1M] | 4.67 |
| FATASAAQPVSTSKPSSDLLDLQP [V8Q] | 4.2 |
| FATASAAVPVSTSKPSSDLLDLQY [P24Y] | 3.27 |
| FATASAAVPVSASKPSSDLLDLQP [T12A] | 4.36 |
| FATASAAVPVSTSKPSSDLIDLQP [L20I] | 3.62 |
| FATRSAAVPVSTSKPSSDLLDLQP [A4R] | 3.16 |
| CATASAAVPVSTSKPSSDLLDLQP [F1C] | 4.64 |
| FATASAAVPVSTSKPGSDLLDLQP [S16G] | 3.57 |
| FATASAAVPVSTSKPSMDLLDLQP [S17M] | 3.56 |
| FATASAAVPVSTEKPSSDLLDLQP [S13E] | 3.67 |
| FATASAAVPVSISKPSSDLLDLQP [T12I] | 3.51 |
| FATASAAVPVSTSKPSDDLLDLQP [S17D] | 4.22 |

| Variant | protein stability index |
| --- | --- |
| FATASAAVPVSTSKPSSQLLDLQP [D18Q] | 3.19 |
| FHTASAAVPVSTSKPSSDLLDLQP [A2H] | 2.71 |
| FATASAAVPVMTSKPSSDLLDLQP [S11M] | 3.5 |
| FATASAAVPVSTSKPSSDNLDLQP [L19N] | 4.32 |
| FQTASAAVPVSTSKPSSDLLDLQP [A2Q] | 4.11 |
| FKTASAAVPVSTSKPSSDLLDLQP [A2K] | 3.99 |
| FATASAAVPFSTSKPSSDLLDLQP [V10F] | 2.69 |
| FATASAAVPVSTSKPSSDLLDRQP [L22R] | 4.14 |
| FATASAAVPVSTSKPNSDLLDLQP [S16N] | 3.81 |
| FATASAAVPVSGSKPSSDLLDLQP [T12G] | 3.91 |
| FATASAAVPVSTSKPSSNLLDLQP [D18N] | 3.14 |
| FATASAAHPVSTSKPSSDLLDLQP [V8H] | 4.27 |
| FATASAAVPVSTIKPSSDLLDLQP [S13I] | 3.42 |
| FATASAAVPVRTSKPSSDLLDLQP [S11R] | 3.77 |
| FATASAAVPVSTSKPSSDLLDGQP [L22G] | 3.93 |
| FATASAAVPVSTSKPSSDLEDLQP [L20E] | 4.34 |
| FATASAAVEVSTSKPSSDLLDLQP [P9E] | 3.99 |
| FATASAAVPVSTSKPSSDPLDLQP [L19P] | 4.39 |
| FATASVAVPVSTSKPSSDLLDLQP [A6V] | 2.98 |
| FATASAAVGVSTSKPSSDLLDLQP [P9G] | 2.3 |
| FATASAAVPVSTSMPSSDLLDLQP [K14M] | 3.48 |
| FATASAAVPVSTSKPSSDLRDLQP [L20R] | 4.09 |
| FATASAAVPVSTSKPSSALLDLQP [D18A] | 3.44 |
| FATASAAVPVSTSKPSSDLLDHQP [L22H] | 4.07 |

| Variant | protein stability index |
| --- | --- |
| FATASAAVPVSTSKPSSDLLDLQW [P24W] | 2.35 |
| FATASAAVPVSTSKPSSDLLDLRP [Q23R] | 3.34 |
| FATASAAVPPSTSKPSSDLLDLQP [V10P] | 4.36 |
| FMTASAAVPVSTSKPSSDLLDLQP [A2M] | 3.79 |
| FATASAAVPVSTSKPSWDLLDLQP [S17W] | 3.31 |
| FATISAAVPVSTSKPSSDLLDLQP [A4I] | 3.04 |
| FATASAAVPVSTSKPSSKLLDLQP [D18K] | 2.98 |
| FATASAAVPVQTSKPSSDLLDLQP [S11Q] | 3.24 |
| FATASEAVPVSTSKPSSDLLDLQP [A6E] | 4.31 |
| FATPSAAVPVSTSKPSSDLLDLQP [A4P] | 4.19 |
| FATASAAVPVSTWKPSSDLLDLQP [S13W] | 2.67 |
| FATASAAVPVSTSKPSSDLLALQP [D21A] | 3.4 |
| FATASAAVPESTSKPSSDLLDLQP [V10E] | 4.23 |
| FATASAAVPVSTSKPHSDLLDLQP [S16H] | 3.71 |
| FATESAAVPVSTSKPSSDLLDLQP [A4E] | 4.57 |
| FATASAGVPVSTSKPSSDLLDLQP [A7G] | 3.72 |
| FATASAAVPVSTSKPSSDLLDLCP [Q23C] | 3.61 |
| FATASAAVPVSTSKPSSDLGDLQP [L20G] | 4.12 |
| FATASAAVPVSTSKPSSYLLDLQP [D18Y] | 3.37 |
| FATASAAVPVGTSKPSSDLLDLQP [S11G] | 3.73 |
| FITASAAVPVSTSKPSSDLLDLQP [A2I] | 2.2 |
| FATASAAVPVSTSKPSSDGLDLQP [L19G] | 4.12 |
